Article doi:10.1101/2024.04.23.590744 (bioRxiv, 2024)
Numbering of substitutions follows the chain as printed. Names may count otherwise. Where two headings read alike, the source gives them in different places.

B1: human LETM1 F-EF-hand domain, residues 643-699, wild type (domain or fragment, UniProt O95202-1 643-699, looked up)
chain: TGENVISVAELINAMKQVKHIPESKLTSLAAALDENKDGKVNIDDLVKVIELVDKED
B2: human LETM1 F-EF-hand domain, residues 643-699, D686A/D687A (domain or fragment, UniProt O95202-1 643-699, looked up)
chain: B1 chain with D44A, D45A
B3: human LETM1 F-EF-hand domain, residues 643-699, D687E (domain or fragment, UniProt O95202-1 643-699, looked up)
chain: B1 chain with D45E
B4: human LETM1 F-EF-hand domain, residues 643-699, D676A/N678A (domain or fragment, UniProt O95202-1 643-699, looked up)
chain: B1 chain with D34A, N36A

What was measured:
Assay in all cases: SEC-MALS
[1] = target: human LETM1 F-EF-hand domain, residues 643-699, D676K/N678K (human) (UniProt O95202)
[2] = target: human LETM1 F-EF-hand domain, residues 643-699, D676K/N678K (human) (UniProt O95202); remark: listed apart in the source
SEC-MALS [3] = target: the molecule itself
SEC-MALS [4] = target: the molecule itself; remark: listed apart in the source

Molecule | stoichiometry N (SEC-MALS [3]) | stoichiometry N (SEC-MALS [4]) | also measured
human LETM1 F-EF-hand domain, residues 643-699, D676K/N678K (from UniProt O95202-1 643-699) (domain or fragment) |  |  | stoichiometry N [1]: 2; stoichiometry N [2]: 2
B1 | ~2 |  | 
B2 |  | 2 | 
B3 | 2 |  | 
B4 |  | 2 | 
